Biological target: nascent 77FtsQTAG27 (E. coli) (UniProt P06136)
Test: cross-linking

Chain of UniProt P06136 (P06136 1-77): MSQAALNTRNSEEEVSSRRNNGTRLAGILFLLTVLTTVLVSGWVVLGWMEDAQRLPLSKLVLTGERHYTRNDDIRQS

- concentration of SRP at which cross-linking saturated: 0.3 µM
B1: purified signal recognition particle (SRP: Ffh and 4.5S RNA) (complex)
chain: MFDNLTDRLSRTLRNISGRGRLTEDNVKDTLREVRMALLEADVALPVVREFINRVKEKAVGHEVNKSLTPGQEFVKIVRNELVAAMGEENQTLNLAAQPPAVVLMAGLQGAGKTTSVGKLGKFLREKHKKKVLVVSADVYRPAAIKQLETLAEQVGVDFFPSDVGQKPVDIVNAALKEAKLKFYDVLLVDTAGRLHVDEAMMDEIKQVHASINPVETLFVVDAMTGQDAANTAKAFNEALPLTGVVLTKVDGDARGGAALSIRHITGKPIKFLGVGEKTEALEPFHPDRIASRILGMGDVLSLIEDIESKVDRAQAEKLASKLKKGDGFDLNDFLEQLRQMKNMGGMASLMGKLPGMGQIPDNVKSQMDDKVLVRMEAIINSMTMKERAKPEIIKGSRKRRIAAGCGMQVQDVNRLLKQFDDMQRMMKKMKKGGMAKMMRSMKGMMPPGFPGR

From publication PMC2199365
